# US10239925B2, “Peptides and combination of peptides for use in immunotherapy against ovarian cancer and other cancers” (IMMATICS BIOTECHNOLOGIES GMBH, priority 2015, dated 2019)
# Molecular target: HLA-A*02:01 (Homo sapiens, UniProt P04439, D140Y/D185E/D98H/E176V/E277Q/G131W/G231S/I119V/I121R/I166T/I218V/L300P/L318F/N151K/N90K/P208A/P217A/Q86G/Q94H/R138H/R169H/T345S)
# Assay: MHC binding assay (UV-ligand exchange, anti-β2m ELISA, peptide exchange yield)
# Conditions: binding to HLA-A*02:01
# Summary of the method: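 Yield of stabilized complexes quantified via the β2m light chain in an ELISA (streptavidin capture, 100-fold diluted monomers, HRP anti-β2m 2 ug/ml at 37 °C, TMB, A450). The complexes come from UV-triggered replacement of a photocleavable ligand by the candidate peptide.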
row,Substance,"Peptide exchange (MHC class I binding score, peptide exchange yield)"
1,366 (RLLDMGETDLML; listed as Homo sapiens) [compound 366],“+++” (>50 = +++)
2,367 (SLQNHNHQL; listed as Homo sapiens) [compound 367],“+++” (>50 = +++)
3,369 (GLFPEHLIDV; listed as Homo sapiens) [compound 369],“+++” (>50 = +++)
4,370 (SLLQDLVSV; listed as Homo sapiens) [compound 370],“+++” (>50 = +++)
5,371 (FLQAHLHTA; listed as Homo sapiens) [compound 371],“++++” (>75% = ++++)
6,372 (TMLLNIPLV; listed as Homo sapiens) [compound 372],“++” (>20% = ++)
7,373 (SLLEDKGLAEV; listed as Homo sapiens) [compound 373],“++” (>20% = ++)
8,375 (SLTETIEGV; listed as Homo sapiens) [compound 375],“++” (>20% = ++)
9,376 (AMFESSQNVLL; listed as Homo sapiens) [compound 376],“++” (>20% = ++)
10,378 (ALGYFVPYV; listed as Homo sapiens) [compound 378],“+++” (>50 = +++)
11,380 (TLIEDEIATI; listed as Homo sapiens) [compound 380],“++” (>20% = ++)
12,383 (ALLELENSVTL; listed as Homo sapiens) [compound 383],“+++” (>50 = +++)
13,386 (ILFRYPLTI; listed as Homo sapiens) [compound 386],“+++” (>50 = +++)
14,387 (ALFQATAEV; listed as Homo sapiens) [compound 387],“++++” (>75% = ++++)
15,388 (SLTIDGIRYV; listed as Homo sapiens) [compound 388],“+++” (>50 = +++)
16,389 (LLADVTHLL; listed as Homo sapiens) [compound 389],“++” (>20% = ++)
17,390 (ALFMKQIYL; listed as Homo sapiens) [compound 390],“+++” (>50 = +++)
18,391 (YVYPQRLNFV; listed as Homo sapiens) [compound 391],“+++” (>50 = +++)
19,393 (GLLDTQTSQVLTA; listed as Homo sapiens) [compound 393],“++” (>20% = ++)
20,396 (ALLPDLPAL; listed as Homo sapiens) [compound 396],“+++” (>50 = +++)
21,397 (YLFGERLLEC; listed as Homo sapiens) [compound 397],“+++” (>50 = +++)
22,398 (KLLEEDGTIITL; listed as Homo sapiens) [compound 398],“++” (>20% = ++)

row,Substance,"Peptide exchange (MHC class I binding score, peptide exchange yield)"
1,400 (SLLTEQDLWTV; listed as Homo sapiens) [compound 400],“++” (>20% = ++)
2,407 (YLMDLINFL; listed as Homo sapiens) [compound 407],“+++” (>50 = +++)
3,409 (LLDAMNYHL; listed as Homo sapiens) [compound 409],“++” (>20% = ++)
4,426 (RLADKSVLV; listed as Homo sapiens) [compound 426],“+++” (>50 = +++)
5,428 (KLGHTDILVGV; listed as Homo sapiens) [compound 428],“++” (>20% = ++)
6,429 (GLVNDLARV; listed as Homo sapiens) [compound 429],“++” (>20% = ++)
7,430 (HLYSSIEHLTT; listed as Homo sapiens) [compound 430],“+++” (>50 = +++)
8,431 (SLVNVVPKL; listed as Homo sapiens) [compound 431],“++” (>20% = ++)
9,432 (TLIEESAKV; listed as Homo sapiens) [compound 432],“++” (>20% = ++)
10,433 (AMLNEPWAV; listed as Homo sapiens) [compound 433],“+++” (>50 = +++)
11,434 (KVSNSGITRV; listed as Homo sapiens) [compound 434],“++” (>20% = ++)
12,436 (HLAEVSAEV; listed as Homo sapiens) [compound 436],“+++” (>50 = +++)
13,440 (ALADGVTMQV; listed as Homo sapiens) [compound 440],“++” (>20% = ++)
14,441 (ALLENPKMEL; listed as Homo sapiens) [compound 441],“+++” (>50 = +++)
15,447 (QLVPALAKV; listed as Homo sapiens) [compound 447],“++” (>20% = ++)
16,450 (FMIDASVHPTL; listed as Homo sapiens) [compound 450],“+++” (>50 = +++)
17,451 (LLLLDTVTMQV; listed as Homo sapiens) [compound 451],“++” (>20% = ++)
18,452 (ILLEHGADPNL; listed as Homo sapiens) [compound 452],“+++” (>50 = +++)
19,453 (KLLEATSAV; listed as Homo sapiens) [compound 453],“++” (>20% = ++)
20,455 (SLLKEPQKVQL; listed as Homo sapiens) [compound 455],“++” (>20% = ++)
21,456 (LLIGHLERV; listed as Homo sapiens) [compound 456],“+++” (>50 = +++)

# More lines, now with the values ahead:
row,"Peptide exchange (MHC class I binding score, peptide exchange yield)",Substance
1,“++” (>20% = ++),374 (FLLQQHLISA; listed as Homo sapiens) [compound 374]
2,“++” (>20% = ++),377 (FLLDSSASV; listed as Homo sapiens) [compound 377]
3,“++” (>20% = ++),379 (IMEGTLTRV; listed as Homo sapiens) [compound 379]
4,“++” (>20% = ++),381 (FIDEAYVEV; listed as Homo sapiens) [compound 381]
5,“++” (>20% = ++),382 (ALQNYIKEA; listed as Homo sapiens) [compound 382]
6,“++” (>20% = ++),385 (SLLEQGLVEA; listed as Homo sapiens) [compound 385]
7,“++” (>20% = ++),392 (ALLHPQGFEV; listed as Homo sapiens) [compound 392]
8,“+++” (>50 = +++),394 (LLAVIGGLVYL; listed as Homo sapiens) [compound 394]
9,“+++” (>50 = +++),399 (YLFEPLYHV; listed as Homo sapiens) [compound 399]
10,“+++” (>50 = +++),401 (ILLDDTGLAYI; listed as Homo sapiens) [compound 401]
11,“++” (>20% = ++),402 (VLFSGALLGL; listed as Homo sapiens) [compound 402]
12,“++” (>20% = ++),403 (KLYDRILRV; listed as Homo sapiens) [compound 403]
13,“++” (>20% = ++),405 (ALYDVFLEV; listed as Homo sapiens) [compound 405]
14,“++” (>20% = ++),408 (VLDDSIYLV; listed as Homo sapiens) [compound 408]
15,“++” (>20% = ++),412 (YLDDLNEGVYI; listed as Homo sapiens) [compound 412]
16,“+++” (>50 = +++),427 (ALLPLSPYL; listed as Homo sapiens) [compound 427]
17,“+++” (>50 = +++),437 (SMAPGLVIQAV; listed as Homo sapiens) [compound 437]
18,“++++” (>75% = ++++),438 (KLLPLAGLYL; listed as Homo sapiens) [compound 438]
19,“+++” (>50 = +++),439 (YLLQEIYGI; listed as Homo sapiens) [compound 439]
20,“+++” (>50 = +++),442 (GLLGGGGVLGV; listed as Homo sapiens) [compound 442]
21,“+++” (>50 = +++),444 (GLLRDEALAEV; listed as Homo sapiens) [compound 444]
22,“+++” (>50 = +++),448 (NLLETKLQL; listed as Homo sapiens) [compound 448]
23,“+++” (>50 = +++),449 (KLAEGLDIQL; listed as Homo sapiens) [compound 449]
24,“+++” (>50 = +++),457 (SLLPGNLVEKV; listed as Homo sapiens) [compound 457]
